The text below walks through data of paper PMC12432404.

This assay addresses α‐synuclein (UniProt P37840).

HspA8, sequence (P11142 whole entry): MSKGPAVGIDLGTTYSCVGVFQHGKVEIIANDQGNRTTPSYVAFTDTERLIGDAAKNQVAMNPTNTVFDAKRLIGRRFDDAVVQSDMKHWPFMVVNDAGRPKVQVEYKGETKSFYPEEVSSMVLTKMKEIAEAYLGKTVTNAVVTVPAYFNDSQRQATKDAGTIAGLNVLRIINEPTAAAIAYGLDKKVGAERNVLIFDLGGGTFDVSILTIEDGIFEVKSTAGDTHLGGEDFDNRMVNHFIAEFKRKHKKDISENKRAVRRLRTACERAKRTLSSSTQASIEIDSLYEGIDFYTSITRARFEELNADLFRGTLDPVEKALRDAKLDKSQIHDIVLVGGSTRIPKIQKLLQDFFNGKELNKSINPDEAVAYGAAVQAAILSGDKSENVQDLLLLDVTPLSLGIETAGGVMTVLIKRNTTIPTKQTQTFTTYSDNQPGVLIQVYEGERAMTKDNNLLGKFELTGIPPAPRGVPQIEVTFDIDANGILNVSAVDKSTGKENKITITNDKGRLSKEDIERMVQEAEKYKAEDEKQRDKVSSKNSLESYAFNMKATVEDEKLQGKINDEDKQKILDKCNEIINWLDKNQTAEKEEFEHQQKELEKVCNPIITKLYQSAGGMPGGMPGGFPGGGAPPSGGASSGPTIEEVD
DNAJB1, sequence (P25685 whole entry): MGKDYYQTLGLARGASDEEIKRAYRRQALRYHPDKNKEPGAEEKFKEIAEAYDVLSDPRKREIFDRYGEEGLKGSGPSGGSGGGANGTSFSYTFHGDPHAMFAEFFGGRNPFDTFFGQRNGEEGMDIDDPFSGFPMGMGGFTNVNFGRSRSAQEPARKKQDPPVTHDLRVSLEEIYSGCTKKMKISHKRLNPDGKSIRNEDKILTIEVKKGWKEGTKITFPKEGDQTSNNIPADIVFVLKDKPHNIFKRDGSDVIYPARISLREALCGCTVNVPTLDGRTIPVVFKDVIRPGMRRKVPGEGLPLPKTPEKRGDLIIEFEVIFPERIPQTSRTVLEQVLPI

Take “DNAJB1 (from UniProt P25685 1-340) (natural protein)”: the Thioflavin‐T fluorescence: elongation of α‐synuclein seeds (2 μM) by monomeric α‐synuclein (0–20 μM) with and without the Hsp70 chaperones (2 μM HspA8, 1 μM DNAJB1, 0.2 μM Hsp110), 30°C was determined as 3 fold.
In turn, “HspA8 (from UniProt P11142 1-646) (natural protein)” displayed a Thioflavin‐T fluorescence: elongation of α‐synuclein seeds (2 μM) by monomeric α‐synuclein (0–20 μM) with and without the Hsp70 chaperones (2 μM HspA8, 1 μM DNAJB1, 0.2 μM Hsp110), 30°C of 3 fold.
